According to the MegaScale stability set (Tsuboyama et al. 2023):

B1: EHEE_rd4_0726 (parent)
chain: DIEITTNGEEDAKRVIKELQKRNLEYHIEVHGNQWVIKVR

Variants of: B1
Assay: folding stability dG (cDNA display proteolysis); higher = more stable
Conditions: PBS, room temperature

In order of falling “folding stability dG” value:
1. DIEITTNGWEDAKRVIKELQKRNLEYHIEVHGNQWVIKVR [E9W]  3.31 kcal/mol
2. DIEITTNGYEDAKRVIKELQKRNLEYHIEVHGNQWVIKVR [E9Y]  2.78 kcal/mol
3. DIEITTNGEEDAKCVIKELQKRNLEYHIEVHGNQWVIKVR [R14C]  2.57 kcal/mol
4. DIEITTNGEEDLKRVIKELQKRNLEYHIEVHGNQWVIKVR [A12L]  2.53 kcal/mol
5. DIEITTNGEEDMKRVIKELQKRNLEYHIEVHGNQWVIKVR [A12M]  2.51 kcal/mol
6. DIEITTNGEEDFKRVIKELQKRNLEYHIEVHGNQWVIKVR [A12F]  2.45 kcal/mol
7. DIEITTNGECDAKRVIKELQKRNLEYHIEVHGNQWVIKVR [E10C]  2.43 kcal/mol
8. DIEITTNGEADAKRVIKELQKRNLEYHIEVHGNQWVIKVR [E10A]  2.4 kcal/mol
9. DIEITTNGEEDAKMVIKELQKRNLEYHIEVHGNQWVIKVR [R14M]  2.27 kcal/mol
10. DIEITTNGEDDAKRVIKELQKRNLEYHIEVHGNQWVIKVR [E10D]  2.25 kcal/mol
11. DIEITTNGEEDAKFVIKELQKRNLEYHIEVHGNQWVIKVR [R14F]  2.24 kcal/mol
12. DIEITTNGEWDAKRVIKELQKRNLEYHIEVHGNQWVIKVR [E10W]  2.21 kcal/mol
13. DIEITTNGEEDAKYVIKELQKRNLEYHIEVHGNQWVIKVR [R14Y]  2.2 kcal/mol
14. DIEITTNGEEDAKIVIKELQKRNLEYHIEVHGNQWVIKVR [R14I]  2.19 kcal/mol
15. DIEITTNGERDAKRVIKELQKRNLEYHIEVHGNQWVIKVR [E10R]  2.18 kcal/mol
16. DIEITTNGEQDAKRVIKELQKRNLEYHIEVHGNQWVIKVR [E10Q]  2.16 kcal/mol
17. DIEITTNGELDAKRVIKELQKRNLEYHIEVHGNQWVIKVR [E10L]  2.15 kcal/mol
18. DIEITTNGVEDAKRVIKELQKRNLEYHIEVHGNQWVIKVR [E9V]  2.15 kcal/mol
19. DIEITTNGEKDAKRVIKELQKRNLEYHIEVHGNQWVIKVR [E10K]  2.14 kcal/mol
20. DIEITTNGEYDAKRVIKELQKRNLEYHIEVHGNQWVIKVR [E10Y]  2.07 kcal/mol
21. DIEITTNGEMDAKRVIKELQKRNLEYHIEVHGNQWVIKVR [E10M]  2.05 kcal/mol
22. DIEITTNGEFDAKRVIKELQKRNLEYHIEVHGNQWVIKVR [E10F]  2.05 kcal/mol
23. DIEITTNGEEDAKVVIKELQKRNLEYHIEVHGNQWVIKVR [R14V]  2.04 kcal/mol
24. DIEITTNGEEDAKRVMKELQKRNLEYHIEVHGNQWVIKVR [I16M]  2.04 kcal/mol
25. DIEITTNGEVDAKRVIKELQKRNLEYHIEVHGNQWVIKVR [E10V]  2.02 kcal/mol
26. DIEITTNGEHDAKRVIKELQKRNLEYHIEVHGNQWVIKVR [E10H]  2.02 kcal/mol
27. DIEITTNGEIDAKRVIKELQKRNLEYHIEVHGNQWVIKVR [E10I]  2.01 kcal/mol
28. DIEITTNGESDAKRVIKELQKRNLEYHIEVHGNQWVIKVR [E10S]  1.95 kcal/mol
29. DIEITTNGETDAKRVIKELQKRNLEYHIEVHGNQWVIKVR [E10T]  1.93 kcal/mol
30. DIEITTNGENDAKRVIKELQKRNLEYHIEVHGNQWVIKVR [E10N]  1.93 kcal/mol
31. DIEITTNGEEDAKNVIKELQKRNLEYHIEVHGNQWVIKVR [R14N]  1.9 kcal/mol
32. DIEITTNGSEDAKRVIKELQKRNLEYHIEVHGNQWVIKVR [E9S]  1.86 kcal/mol
33. DIEITTNGEEDAKTVIKELQKRNLEYHIEVHGNQWVIKVR [R14T]  1.84 kcal/mol
34. DIEITTNGEEDAKRVLKELQKRNLEYHIEVHGNQWVIKVR [I16L]  1.83 kcal/mol
35. DIEITTNGEEDAKSVIKELQKRNLEYHIEVHGNQWVIKVR [R14S]  1.82 kcal/mol
36. DIEITTNGEEDYKRVIKELQKRNLEYHIEVHGNQWVIKVR [A12Y]  1.82 kcal/mol
37. DIEITTNGEGDAKRVIKELQKRNLEYHIEVHGNQWVIKVR [E10G]  1.77 kcal/mol
38. DIEITTNGEEDTKRVIKELQKRNLEYHIEVHGNQWVIKVR [A12T]  1.74 kcal/mol
39. DIEITTNGEEDVKRVIKELQKRNLEYHIEVHGNQWVIKVR [A12V]  1.74 kcal/mol
40. DIEITTNGEEDAKDVIKELQKRNLEYHIEVHGNQWVIKVR [R14D]  1.59 kcal/mol
41. DIEITTNGEEDAKRVAKELQKRNLEYHIEVHGNQWVIKVR [I16A]  1.54 kcal/mol
42. DIEITTNGEPDAKRVIKELQKRNLEYHIEVHGNQWVIKVR [E10P]  1.52 kcal/mol
43. DIEITTNGTEDAKRVIKELQKRNLEYHIEVHGNQWVIKVR [E9T]  1.52 kcal/mol
44. DIEITTNGEEDAKGVIKELQKRNLEYHIEVHGNQWVIKVR [R14G]  1.51 kcal/mol
45. DIEITTNGEEDWKRVIKELQKRNLEYHIEVHGNQWVIKVR [A12W]  1.51 kcal/mol
46. DIEITTNGEEDIKRVIKELQKRNLEYHIEVHGNQWVIKVR [A12I]  1.49 kcal/mol
47. DIEITTNGEEDGKRVIKELQKRNLEYHIEVHGNQWVIKVR [A12G]  1.43 kcal/mol
48. DIEITTNGEEDAKRVEKELQKRNLEYHIEVHGNQWVIKVR [I16E]  1.34 kcal/mol
49. DIEITTNGEEDSKRVIKELQKRNLEYHIEVHGNQWVIKVR [A12S]  1.28 kcal/mol
50. DIEITTNGEEDRKRVIKELQKRNLEYHIEVHGNQWVIKVR [A12R]  1.17 kcal/mol
51. DIEITTNGEEDKKRVIKELQKRNLEYHIEVHGNQWVIKVR [A12K]  1.06 kcal/mol
52. DIEITTNGEEDAKPVIKELQKRNLEYHIEVHGNQWVIKVR [R14P]  1.04 kcal/mol
53. DIEITTNGEEDAKRVFKELQKRNLEYHIEVHGNQWVIKVR [I16F]  1.02 kcal/mol
54. DIEITTNGEEDHKRVIKELQKRNLEYHIEVHGNQWVIKVR [A12H]  1.01 kcal/mol
55. DIEITTNGEEDAKRVQKELQKRNLEYHIEVHGNQWVIKVR [I16Q]  0.929 kcal/mol
56. DIEITTNGEEDAKRVGKELQKRNLEYHIEVHGNQWVIKVR [I16G]  0.895 kcal/mol
57. DIEITTNGEEDQKRVIKELQKRNLEYHIEVHGNQWVIKVR [A12Q]  0.813 kcal/mol
58. DIEITTNGEEDNKRVIKELQKRNLEYHIEVHGNQWVIKVR [A12N]  0.444 kcal/mol
59. DIEITTNGEEDAKRVKKELQKRNLEYHIEVHGNQWVIKVR [I16K]  0.043 kcal/mol
60. DIEITTNGEEDEKRVIKELQKRNLEYHIEVHGNQWVIKVR [A12E]  -0.056 kcal/mol
61. DIEITTNGEEDPKRVIKELQKRNLEYHIEVHGNQWVIKVR [A12P]  -0.076 kcal/mol
62. DIEITTNGEEDAKRVHKELQKRNLEYHIEVHGNQWVIKVR [I16H]  -0.379 kcal/mol
63. DIEITTNGEEDAKRVNKELQKRNLEYHIEVHGNQWVIKVR [I16N]  -0.729 kcal/mol
